We go through two molecules from paper PMC3210390.

Series [1] deals with T1, Tfam WT (mature) (Homo sapiens, UniProt Q00059 43-246).
T1 sequence: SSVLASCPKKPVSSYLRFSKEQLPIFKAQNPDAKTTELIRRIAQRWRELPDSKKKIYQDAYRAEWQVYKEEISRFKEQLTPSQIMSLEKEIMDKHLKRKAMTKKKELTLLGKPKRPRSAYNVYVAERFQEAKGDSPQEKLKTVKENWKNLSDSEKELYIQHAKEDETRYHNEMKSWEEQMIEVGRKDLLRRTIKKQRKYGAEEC
As to the kind of experiment: FRET bending.

Series [2] addresses T2, Tfam T77A (Homo sapiens, UniProt Q00059 43-246, T77A).
T2 sequence: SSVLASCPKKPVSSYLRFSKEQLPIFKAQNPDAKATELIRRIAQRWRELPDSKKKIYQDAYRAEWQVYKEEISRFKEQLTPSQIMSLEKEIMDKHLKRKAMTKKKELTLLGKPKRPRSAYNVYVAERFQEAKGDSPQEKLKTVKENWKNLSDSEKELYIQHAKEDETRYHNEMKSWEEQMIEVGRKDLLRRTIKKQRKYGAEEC
In words: FRET bending.

Series [3] addresses T3, Tfam L6 (Homo sapiens, UniProt Q00059 43-246, K136A;H137A;K139A;R140A;K146A;K147A).
T3 sequence: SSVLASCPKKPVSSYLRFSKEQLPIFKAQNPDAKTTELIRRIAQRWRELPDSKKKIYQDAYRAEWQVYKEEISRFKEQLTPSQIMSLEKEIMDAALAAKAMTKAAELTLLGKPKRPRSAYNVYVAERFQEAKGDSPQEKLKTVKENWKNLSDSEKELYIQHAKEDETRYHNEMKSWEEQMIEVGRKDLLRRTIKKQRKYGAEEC
As to the kind of experiment: FRET bending.

For series [4], the target named is T4, Tfam Y162A (Homo sapiens, UniProt Q00059 43-246, Y162A).
T4 sequence: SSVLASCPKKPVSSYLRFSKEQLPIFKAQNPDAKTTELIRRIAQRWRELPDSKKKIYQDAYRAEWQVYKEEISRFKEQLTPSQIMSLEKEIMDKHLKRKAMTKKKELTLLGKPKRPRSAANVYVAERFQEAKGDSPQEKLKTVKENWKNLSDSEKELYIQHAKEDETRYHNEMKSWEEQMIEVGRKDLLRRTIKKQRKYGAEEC
As to the kind of experiment: FRET bending.

The next series addresses T5, Tfam HMG-box A (Homo sapiens, UniProt Q00059 43-122).
T5 sequence: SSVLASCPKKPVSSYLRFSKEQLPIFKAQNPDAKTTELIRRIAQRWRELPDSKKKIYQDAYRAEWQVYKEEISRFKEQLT
In words: intrinsic Trp fluorescence quenching.

Series [5] has as its target T1, Tfam WT (mature). As to the kind of experiment: intrinsic Trp fluorescence quenching.
Series [6] addresses T2, Tfam T77A. In words: intrinsic Trp fluorescence quenching.
A further series deals with T6, Tfam HMG-box B (Homo sapiens, UniProt Q00059 153-222).
T6 sequence: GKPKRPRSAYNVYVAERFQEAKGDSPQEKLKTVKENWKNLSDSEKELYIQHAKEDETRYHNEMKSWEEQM
In words: intrinsic Trp fluorescence quenching.

Series [7] addresses T3, Tfam L6. In words: intrinsic Trp fluorescence quenching.
Series [8] addresses T4, Tfam Y162A. In words: intrinsic Trp fluorescence quenching.

B1: LSP 28 bp Cy3/Cy5 (dsDNA)
DNA 1: TGTTAGTTGGGGGGTGACTGTTAAAAGT
DNA 2: ACTTTTAACAGTCACCCCCCAACTAACA
Regarding B1, the binding signal with Tfam WT (mature) [1] was found to be 36.5 ± 0.8 % FRET efficiency; with Tfam T77A [2], 31.4 ± 0.2 % FRET efficiency; with Tfam L6 [3], 26.1 ± 0.6 % FRET efficiency; in the series with Tfam Y162A [4] it was 29.4 ± 0.6 % FRET efficiency.

B2: LSP 28 bp (dsDNA)
DNA 1: TGTTAGTTGGGGGGTGACTGTTAAAAGT
DNA 2: ACTTTTAACAGTCACCCCCCAACTAACA
Turning to B2, the Kd (usually a measure of binding affinity in units of concentration) was 6.5 ± 1.2 nM in the series with Tfam HMG-box A; 6 ± 0.9 nM with Tfam WT (mature) [5]; 7.6 ± 1.1 nM with Tfam T77A [6]; 411 ± 46 nM in the series with Tfam HMG-box B; 10.1 ± 1.2 nM with Tfam L6 [7]; 12.3 ± 1.8 nM with Tfam Y162A [8].
